In patent publication US20260207718A1, “METHODS FOR TREATING LATE ONSET POMPE DISEASE IN PEDIATRIC PATIENTS” (Amicus Therapeutics, Inc., priority 2022, published 2026):
Entries after “also recorded” stand apart in the source; their conditions may differ. Read-outs that look alike come from different tables or passages of the source. Marks after values point to notes of the source that are not given here.

Tests used:
CIMPR [1] = target: T1, CIMPR (Homo sapiens, UniProt P11717); test: CIMPR affinity chromatography (bound vs unbound rhGAA by GAA activity); type: binding
Description: Multiple batches of the rhGAA according to the disclosure were produced in shake flasks and in perfusion bioreactors using CHO cell line GA-ATB200, the product of which is referred to as “ATB200.” Weak anion exchange (“WAX”) liquid chromatography was used to fractionate ATB200 rhGAA according to terminal phosphate and sialic acid. Elution profiles were generated by eluting the ERT with increasing amount of salt. The profiles were monitored by UV (A280 nm).
To evaluate the ability of the conventional rhGAAs in MYOZYME® and LUMIZYME® to interact with the CIMPR, the two conventional rhGAA preparations were injected onto a CIMPR affinity column (which binds rhGAA having M6P groups) and the flow through collected. The bound material was eluted with a free M6 gradient. Fractions were collected in 96-well plate and GAA activity assayed by 4MU-α-glucosidase substrate. The relative amounts of unbound (flow through) and bound (M6P eluted) rhGAA were determined based on GAA activity and reported as the fraction of total enzyme. […] Indeed, only 27% of the rhGAA in MYOZYME® and 22% of the rhGAA in LUMIZYME® contained M6P that can be productive to target it to the CIMPR on muscle cells.

[2] = Case: pediatric atypical IOPD patient, PK of ATB200 and AT2221 after 1 year; type: in vivo, human
[3] = ATB200-04 trial: population PK exposure matching of adolescents to adults; type: in vivo, human; design: AUC0-24, Mean / AUC0-24, Median / AUC0-24, P5 / AUC0-24, P95 / AUC0-24, Geo Mean: unit not given beside the values; details: for AUC0-24, Geo Mean / AUC0-24, Mean / AUC0-24, Median / AUC0-24, P5 / AUC0-24, P95: predicted
Description: The ATB200-04 trial seeks to evaluate the safety and tolerability of cipaglucosidase alfa/miglustat co-administration.
Subjects have scheduled PK assessments at Day 1, Week 26, and Week 52 for plasma total GAA protein and miglustat.
Population PK parameters include clearance (CL) and volume of distribution (V), estimated from total GAA protein concentrations and miglustat concentrations in plasma.
Methods for Exposure Matching. Pediatric PK data from both clinical trials and expanded access programs were used for exposure matching to adult PK data. […] The previous base population PK models from cipaglucosidase alfa-atga and miglustat were rerun with the updated dataset. To account for longitudinal changes in body size for pediatric patients, the time-varying body weight was used to estimate the effects of body size on PK parameters in the population PK models. The effect of age at baseline on clearance was also evaluated in the PK models. Individual AUC0-24 and Cmax of cipaglucosidase alfa and miglustat were predicted from the PK empirical Bayes estimates (EBEs). The time-varying body weight and baseline age in pediatrics were used in the exposure prediction. PK exposures (AUC0-24 and Cmax) were predicted for each PK visit during the study; Day 1-baseline, Week 26, and Week 52. Additionally, there were unscheduled PK visits for some subjects.
Results for Adolescent Subjects. […] The dose may have been adjusted at a later visit for exposure matching. It should be noted however, that in the early stage of the study, all subjects were started at 20 mg/kg to evaluate safety.

[4] = Thermostability assay using SYPRO Orange; type: physicochemical
Method: The stability of ATB200 in acidic or neutral pH buffers was evaluated in a thermostability assay using SYPRO Orange, as the fluorescence of the dye increases when proteins denature. […] As summarized in Table 10, the addition of miglustat increased the melting temperature (Tm) of ATB200 by nearly 10° C.

[5] = system: pediatric subjects with late-onset Pompe disease; test: ATB200-04 trial: safety in pediatric subjects with LOPD; type: in vivo, human; details: ERT-experienced subject, Cohort 2
Description: This study includes subjects with Pompe disease except classic IOPD.
Safety assessments include monitoring of adverse events (AEs), clinical laboratory tests (chemistry, hematology, and urinalysis), physical examinations, vital signs, 12-lead electrocardiogram (ECGs), and detection of cipaglucosidase alfa antibodies.

[6] = system: normal and Pompe fibroblast cell lines; test: Cellular uptake of rhGAA in fibroblasts; type: cell-based
Method: The relative cellular uptake of ATB200 and LUMIZYME® rhGAA were compared using normal and Pompe fibroblast cell lines. Comparisons involved 5-100 nM of ATB200 according to the disclosure with 10-500 nM conventional rhGAA product LUMIZYME®. After 16-hr incubation, external rhGAA was inactivated with TRIS base and cells were washed 3-times with PBS prior to harvest. Internalized GAA measured by 4MU-α-Glucoside hydrolysis and was graphed relative to total cellular protein and the results appear in FIGS. 11A-11C.
ATB200 was also shown to be efficiently internalized into cells. […] ATB200 saturates cellular receptors at about 20 nM, while about 250 nM of LUMIZYME® is needed to saturate cellular receptors.

Gaa KO mice = test: Single fiber analysis (LAMP1/LC3) of muscle fibers from Gaa KO mice; type: in vivo
Description: FIG. 17 depicts co-immunofluorescent staining of LAMP1 (green) (see for example, “B”) and LC3 (red) (see, for example, “A”) in single fibers isolated from the white gastrocnemius of Gaa KO mice treated with a vehicle, alglucosidase alfa, or ATB200. “C” depicts clearance of autophagic debris and absence of enlarged lysosome. A minimum of 30 fibers were examined from each animal.
As a result, a significant portion of muscle fibers analyzed (36-60%) from ATB200-treated mice appeared normal or near-normal.

CIMPR [7] = target: T1, CIMPR; test: CIMPR plate binding assay
Method: In addition to having a greater percentage of rhGAA that can bind to the CIMPR, it is important to understand the quality of that interaction. LUMIZYME® and ATB200 receptor binding was determined using a CIMPR plate binding assay. Briefly, CIMPR-coated plates were used to capture GAA. Varying concentrations of rhGAA were applied to the immobilized receptor and unbound rhGAA was washed off. The amount of remaining rhGAA was determined by GAA activity. […] For LUMIZYME®, there is on average only 10% of molecules having a bis-phosphorylated N-glycan. In contrast, on average every rhGAA molecule in ATB200 has at least one bis-phosphorylated N-glycan.
N-glycan analysis via MALDI-TOF mass spectrometry confirmed that on average each ATB200 molecule contains at least one natural bis-M6P N-glycan structure.

[8] = adolescent Subject 2, 20 mg/kg, Week 52, 83.8 kg
[9] = adolescent Subject 3, 25 mg/kg, Week 52, 64.6 kg
[10] = adolescent Subject 4, 25 mg/kg, Week 64, 53.3 kg
[11] = adolescent Subject 5, 25 mg/kg, Week 52, 43.7 kg
[12] = adolescent Subject 6, 25 mg/kg, Week 52, 36.5 kg
[13] = adolescent Subject 7, 25 mg/kg, Week 52, 60.3 kg
[14] = adolescent Subject 8, 25 mg/kg, Week 72, 38.5 kg

T1 sequence (P11717 41-2491, species assumed): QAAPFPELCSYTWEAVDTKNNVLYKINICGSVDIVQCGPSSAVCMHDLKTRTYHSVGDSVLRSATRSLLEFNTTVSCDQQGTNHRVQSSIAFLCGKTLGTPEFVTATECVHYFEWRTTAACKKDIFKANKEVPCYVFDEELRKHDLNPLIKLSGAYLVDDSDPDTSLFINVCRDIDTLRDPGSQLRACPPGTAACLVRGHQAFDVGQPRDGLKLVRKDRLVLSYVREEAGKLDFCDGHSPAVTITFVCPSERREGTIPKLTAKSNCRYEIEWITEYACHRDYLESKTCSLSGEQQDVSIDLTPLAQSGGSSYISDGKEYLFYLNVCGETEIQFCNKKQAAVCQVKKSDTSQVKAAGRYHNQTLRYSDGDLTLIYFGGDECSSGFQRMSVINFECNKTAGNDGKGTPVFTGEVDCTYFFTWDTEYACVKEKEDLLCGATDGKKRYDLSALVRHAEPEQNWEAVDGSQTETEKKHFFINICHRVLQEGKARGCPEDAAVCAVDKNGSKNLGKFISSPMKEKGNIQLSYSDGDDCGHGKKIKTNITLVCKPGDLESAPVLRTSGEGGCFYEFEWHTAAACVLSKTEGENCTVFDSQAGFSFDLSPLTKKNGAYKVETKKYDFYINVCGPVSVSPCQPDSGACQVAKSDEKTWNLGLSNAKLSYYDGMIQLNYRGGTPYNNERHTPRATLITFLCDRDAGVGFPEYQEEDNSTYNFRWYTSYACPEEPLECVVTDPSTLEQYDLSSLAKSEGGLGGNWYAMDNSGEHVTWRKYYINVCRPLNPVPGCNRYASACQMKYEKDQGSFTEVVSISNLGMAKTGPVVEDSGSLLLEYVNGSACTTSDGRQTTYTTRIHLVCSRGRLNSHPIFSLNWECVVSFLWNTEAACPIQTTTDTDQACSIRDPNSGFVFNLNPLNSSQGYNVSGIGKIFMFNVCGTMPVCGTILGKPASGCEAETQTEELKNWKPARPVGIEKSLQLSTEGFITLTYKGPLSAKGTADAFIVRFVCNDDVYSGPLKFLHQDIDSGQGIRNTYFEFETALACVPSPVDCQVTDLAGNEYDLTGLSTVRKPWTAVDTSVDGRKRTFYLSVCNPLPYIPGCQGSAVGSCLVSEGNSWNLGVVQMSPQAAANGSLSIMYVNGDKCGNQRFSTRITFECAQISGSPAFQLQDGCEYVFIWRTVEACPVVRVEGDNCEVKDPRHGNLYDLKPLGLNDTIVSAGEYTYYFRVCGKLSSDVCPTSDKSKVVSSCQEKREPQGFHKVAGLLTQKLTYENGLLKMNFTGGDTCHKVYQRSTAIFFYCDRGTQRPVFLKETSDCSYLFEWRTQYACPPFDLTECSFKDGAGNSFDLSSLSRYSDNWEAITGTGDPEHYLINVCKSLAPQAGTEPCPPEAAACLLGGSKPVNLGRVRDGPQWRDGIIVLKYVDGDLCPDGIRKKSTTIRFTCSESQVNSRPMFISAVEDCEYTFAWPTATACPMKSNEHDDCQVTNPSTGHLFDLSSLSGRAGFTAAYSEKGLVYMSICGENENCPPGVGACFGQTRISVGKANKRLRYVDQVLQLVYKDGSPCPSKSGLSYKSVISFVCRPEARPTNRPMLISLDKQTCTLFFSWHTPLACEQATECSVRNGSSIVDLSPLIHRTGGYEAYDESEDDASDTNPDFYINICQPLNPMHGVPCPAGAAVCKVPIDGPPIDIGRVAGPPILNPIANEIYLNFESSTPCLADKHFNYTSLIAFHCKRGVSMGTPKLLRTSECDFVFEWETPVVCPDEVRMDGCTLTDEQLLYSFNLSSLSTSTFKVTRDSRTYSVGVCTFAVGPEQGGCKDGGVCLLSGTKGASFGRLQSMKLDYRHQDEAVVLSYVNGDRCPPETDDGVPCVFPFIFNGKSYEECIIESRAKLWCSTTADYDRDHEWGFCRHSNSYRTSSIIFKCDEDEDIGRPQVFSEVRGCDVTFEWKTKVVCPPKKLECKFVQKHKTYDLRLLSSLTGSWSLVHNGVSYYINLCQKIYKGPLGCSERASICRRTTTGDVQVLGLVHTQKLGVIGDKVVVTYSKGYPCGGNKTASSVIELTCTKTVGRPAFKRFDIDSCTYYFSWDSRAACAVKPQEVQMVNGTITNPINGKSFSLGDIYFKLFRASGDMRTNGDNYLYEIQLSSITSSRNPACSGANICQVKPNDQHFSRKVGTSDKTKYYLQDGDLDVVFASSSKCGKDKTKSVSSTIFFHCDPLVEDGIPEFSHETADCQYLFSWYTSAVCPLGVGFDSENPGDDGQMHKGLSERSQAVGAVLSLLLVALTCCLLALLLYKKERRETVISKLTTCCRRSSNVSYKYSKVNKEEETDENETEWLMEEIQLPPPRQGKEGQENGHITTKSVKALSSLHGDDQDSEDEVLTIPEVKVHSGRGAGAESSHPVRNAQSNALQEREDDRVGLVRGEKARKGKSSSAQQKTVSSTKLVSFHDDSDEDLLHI

**Q.** Which results are given for “ATB200: recombinant human acid α-glucosidase with high content of N-glycans bearing mono-M6P and bis-M6P, produced from GA-ATB200 CHO cell line”?
**A.** rhGAA that bound to the CIMPR (CIMPR [1]): more than 70%; rhGAA that bound to the CIMPR (CIMPR [1]; listed as ATB200 rhGAA): ≥ 70%; ATB200 AUC ([2]; Adult (10th-90th percentile)): 1001 to 1924 µg·h/mL; ATB200 Cmax ([2]; Adult (10th-90th percentile)): 223 to 363 µg/mL; ATB200 AUC ([2]; Adult (median)): 1415 µg·h/mL; ATB200 Cmax ([2]; Adult (median)): 294 µg/mL; ATB200 AUC ([2]; patient with atypical IOPD, 12Y5M, 46.5 kg, ATB200 20 mg/kg + AT2221 195 mg biweekly for 1 year): 1257 µg·h/mL; ATB200 Cmax ([2]; patient with atypical IOPD, 12Y5M, 20 mg/kg): 245 µg/mL; AUC0-24, geometric LSM Ratio adolescents to adults ([3]; 90% CI (81.96, 96.88)): 89.11; Cmax, geometric LSM Ratio adolescents to adults ([3]; 90% CI (82.51, 104.69)): 92.94; individual predicted AUC0-24 ([3]; adolescent Subject 1, 20 mg/kg, Week 52, 77.9 kg): 1396; individual predicted AUC0-24 [3, 8]: 1315; individual predicted Cmax [3, 8]: 277; individual predicted AUC0-24 [3, 9]: 1318; individual predicted Cmax [3, 9]: 305; individual predicted AUC0-24 [3, 10]: 1472; individual predicted Cmax [3, 10]: 294; individual predicted AUC0-24 [3, 11]: 1175; individual predicted Cmax [3, 11]: 240; individual predicted AUC0-24 [3, 12]: 1047; individual predicted Cmax [3, 12]: 222; individual predicted AUC0-24 [3, 13]: 1269; individual predicted Cmax [3, 13]: 273; individual predicted AUC0-24 [3, 14]: 1138; individual predicted Cmax [3, 14]: 229; predicted AUC0-24 and Cmax for adolescents relative to adult 5th and 95th percentile range ([3]; adults N=100, adolescents N=8): well within the adult 5th and 95th percentile range; AUC0-24, Geo Mean ([3]; Adolescents N=8): 1259; AUC0-24, Mean ([3]; Adolescents N=8): 1266; AUC0-24, Median ([3]; Adolescents N=8): 1292; AUC0-24, P5 ([3]; Adolescents N=8): 1079; AUC0-24, P95 ([3]; Adolescents N=8): 1446; AUC0-24, Geo Mean ([3]; Adults N=100): 1413; AUC0-24, Mean ([3]; Adults N=100): 1461; AUC0-24, Median ([3]; Adults N=100): 1433; AUC0-24, P5 ([3]; Adults N=100): 898; AUC0-24, P95 ([3]; Adults N=100): 2162; Tm ([4]; pH 5.2): 67.3 °C; Tm ([4]; pH 7.4): 56.2 °C; increase of melting temperature (Tm) by addition of miglustat ([4]; pH 7.4): ~10 °C; Tm ([4]; pH 7.4 + 10 μM miglustat): 61.6 °C; Tm ([4]; pH 7.4 + 30 μM miglustat): 62.9 °C; Tm ([4]; pH 7.4 + 100 μM miglustat): 66.0 °C; investigator-assessed relatedness of anaphylaxis event (both episodes) [5]: definitely related; concentration that saturates cellular receptors ([6]; 16-hr incubation): about 20 nM; uptake efficiency constant (Kuptake) ([6]; 16-hr incubation, extrapolated, FIG. 11C): 2-3 nm; internalization into normal and Pompe fibroblast cells ([6]; FIGS. 11A-11B): internalized to a greater degree than the conventional rhGAA product LUMIZYME®; Fibers with Autophagy Buildup (Gaa KO mice): 40-64%*; Fibers with Normal or Near-normal Appearance (Gaa KO mice): 36-60%; Lysosome Enlargement (Gaa KO mice; white gastrocnemius): dramatically decreased lysosome size; also recorded: Dramatic size; binding to CIMPR compared with LUMIZYME® (CIMPR [7]; CIMPR plate binding assay, FIG. 10A): bound to CIMPR significantly better than LUMIZYME®; Kd (CIMPR [7]; M6P receptor plate binding assays): 2 to 4 nM
